Measured values reported in patent US20220041718A1 (AUTOLUS, published 2022).
Substitutions are numbered along the chain they refer to. Numbers in names are those of the source.

B1: hJovi-1 variant IgG, VH T28K, Y32F, A100N; VL unmutated (antibody, V domains shown)
VH: QVQLVQSGAEVKKPGASVKVSCKASGYKFTGFVMHWVRQAPGQGLEWMGFINPYNDDIQSNERFRGRVTMTRDTSISTAYMELSRLRSDDTAVYYCARGNGYNFDGAYRFFDFWGQGTMVTVSS
VL: DIVMTQSPLSLPVTPGEPASISCRSSQRLVHSNGNTYLHWYLQKPGQSPRLLIYRVSNRFPGVPDRFSGSGSGTDFTLKISRVEAEDVGVYYCSQSTHVPYTFGQGTKLEIK
notes: IgG format; also called anti-TRBC2 triple mutant
B2: hJovi-1 variant IgG, VH G31R, Y32F, A100N; VL unmutated (antibody, V domains shown)
VH: B1 VH with K28T, G31R
VL: B1 VL
notes: IgG format
B3: hJovi-1 variant IgG, VH N103E, T28K, Y32F, A100N; VL N35M (antibody, V domains shown)
VH: B1 VH with N103E
VL: B1 VL with N35M
notes: IgG format
B4: hJovi-1 variant IgG, VH T28K Y32F A100N; VL R55K (antibody, V domains shown)
VH: B1 VH
VL: B1 VL with R55K
notes: IgG format
B5: hJovi-1 variant IgG, VH N103S, T28K, Y32F, A100N; VL N35M (antibody, V domains shown)
VH: B1 VH with N103S
VL: B1 VL with N35M
notes: IgG format
B6: hJovi-1 variant IgG, VH T28K, Y32F, A100N, N103F; VL N35K (antibody, V domains shown)
VH: B1 VH with N103F
VL: B1 VL with N35K
notes: IgG format
B7: hJovi-1 variant IgG, VH N103M, T28K, Y32F, A100N; VL N35F (antibody, V domains shown)
VH: B1 VH with N103M
VL: B1 VL with N35F
notes: IgG format
B8: hJovi-1 variant IgG, VH T28K, Y32F, A100N, N103M; VL N35M (antibody, V domains shown)
VH: B1 VH with N103M
VL: B1 VL with N35M
notes: IgG format
B9: hJovi-1 variant IgG, VH N103S, T28K, Y32F, A100N; VL N35F (antibody, V domains shown)
VH: B1 VH with N103S
VL: B1 VL with N35F
notes: IgG format
B10: hJovi-1 variant IgG, VH T28K, Y32F, A100N, N103Y; VL unmutated (antibody, V domains shown)
VH: B1 VH with N103Y
VL: B1 VL
notes: IgG format
B11: hJovi-1 variant IgG, VH N103S, T28K, Y32F, A100N; VL N35R (antibody, V domains shown)
VH: B1 VH with N103S
VL: B1 VL with N35R
notes: IgG format
B12: hJovi-1 variant IgG, VH N103L, T28K, Y32F, A100N; VL N35Y (antibody, V domains shown)
VH: B1 VH with N103L
VL: B1 VL with N35Y
notes: IgG format
B13: hJovi-1 variant IgG, VH T28K, G31R, Y32F, A100N; VL unmutated (antibody, V domains shown)
VH: B1 VH with G31R
VL: B1 VL
notes: IgG format
B14: hJovi-1 variant IgG, VH T28K, Y32F, A100N, N103S; VL unmutated (antibody, V domains shown)
VH: B1 VH with N103S
VL: B1 VL
notes: IgG format
B15: hJovi-1 variant IgG, VH N103S, T28K, Y32F, A100N; VL N35K (antibody, V domains shown)
VH: B1 VH with N103S
VL: B1 VL with N35K
notes: IgG format
B16: hJovi-1 variant IgG, VH N103F, T28K, Y32F, A100N; VL N35M (antibody, V domains shown)
VH: B1 VH with N103F
VL: B1 VL with N35M
notes: IgG format
B17: hJovi-1 variant IgG, VH T28K, Y32F, A100N, N103F; VL unmutated (antibody, V domains shown)
VH: B1 VH with N103F
VL: B1 VL
notes: IgG format
B18: hJovi-1 variant IgG, VH N103L, T28K, Y32F, A100N; VL N35K (antibody, V domains shown)
VH: B1 VH with N103L
VL: B1 VL with N35K
notes: IgG format
B19: hJovi-1 variant IgG, VH T28K, Y32F, A100N, N103H; VL unmutated (antibody, V domains shown)
VH: B1 VH with N103H
VL: B1 VL
notes: IgG format
B20: hJovi-1 variant IgG, VH G31S, T28K, Y32F, A100N; VL unmutated (antibody, V domains shown)
VH: B1 VH with G31S
VL: B1 VL
notes: IgG format
B21: hJovi-1 variant IgG, VH N103L, T28K, Y32F, A100N; VL N35F (antibody, V domains shown)
VH: B1 VH with N103L
VL: B1 VL with N35F
notes: IgG format
B22: hJovi-1 variant IgG, VH T28K, Y32F, A100N, N103Q; VL unmutated (antibody, V domains shown)
VH: B1 VH with N103Q
VL: B1 VL
notes: IgG format
B23: hJovi-1 variant IgG, VH N103L, T28K, Y32F, A100N; VL N35R (antibody, V domains shown)
VH: B1 VH with N103L
VL: B1 VL with N35R
notes: IgG format
B24: hJovi-1 variant IgG, VH T28K, Y32F, A100N, Y102F, N103M; VL N35F (antibody, V domains shown)
VH: B1 VH with Y102F, N103M
VL: B1 VL with N35F
notes: IgG format
B25: hJovi-1 variant IgG, VH N103F, T28K, Y32F, A100N; VL N35F (antibody, V domains shown)
VH: B1 VH with N103F
VL: B1 VL with N35F
notes: IgG format
B26: hJovi-1 variant IgG, VH N103W, T28K, Y32F, A100N; VL N35M (antibody, V domains shown)
VH: B1 VH with N103W
VL: B1 VL with N35M
notes: IgG format
B27: hJovi-1 variant IgG, VH N103S, T28K, Y32F, A100N; VL N35Y (antibody, V domains shown)
VH: B1 VH with N103S
VL: B1 VL with N35Y
notes: IgG format
B28: hJovi-1 variant IgG, VH T28K, Y32F, A100N, N103M; VL N35Y (antibody, V domains shown)
VH: B1 VH with N103M
VL: B1 VL with N35Y
notes: IgG format
B29: hJovi-1 variant IgG, VH T28K, Y32F, A100N, N103M; VL unmutated (antibody, V domains shown)
VH: B1 VH with N103M
VL: B1 VL
notes: IgG format
B30: hJovi-1 variant IgG, VH T28K, Y32F, A100N, N103L; VL unmutated (antibody, V domains shown)
VH: B1 VH with N103L
VL: B1 VL
notes: IgG format
B31: hJovi-1 variant IgG, VH N103W, T28K, Y32F, A100N; VL N35K (antibody, V domains shown)
VH: B1 VH with N103W
VL: B1 VL with N35K
notes: IgG format
B32: hJovi-1 variant IgG, VH N103W, T28K, Y32F, A100N; VL N35F (antibody, V domains shown)
VH: B1 VH with N103W
VL: B1 VL with N35F
notes: IgG format
B33: hJovi-1 variant IgG, VH T28K, Y32F, A100N, N103W; VL unmutated (antibody, V domains shown)
VH: B1 VH with N103W
VL: B1 VL
notes: IgG format
B34: hJovi-1 variant IgG, VH N103F, T28K, Y32F, A100N; VL N35Y (antibody, V domains shown)
VH: B1 VH with N103F
VL: B1 VL with N35Y
notes: IgG format
B35: hJovi-1 variant IgG, VH N103L, T28K, Y32F, A100N; VL N35M (antibody, V domains shown)
VH: B1 VH with N103L
VL: B1 VL with N35M
notes: IgG format
B36: hJovi-1 variant IgG, VH T28K, Y32F, A100N, A107S; VL unmutated (antibody, V domains shown)
VH: B1 VH with A107S
VL: B1 VL
notes: IgG format
B37: hJovi-1 variant IgG, VH T28K, Y32F, A100N, N103M; VL N35R (antibody, V domains shown)
VH: B1 VH with N103M
VL: B1 VL with N35R
notes: IgG format
B38: hJovi-1 variant IgG, VH T28K, Y32F, A100N, N103A; VL unmutated (antibody, V domains shown)
VH: B1 VH with N103A
VL: B1 VL
notes: IgG format
B39: hJovi-1 variant IgG, VH T28K, Y32F, A100N, N103E; VL unmutated (antibody, V domains shown)
VH: B1 VH with N103E
VL: B1 VL
notes: IgG format
B40: hJovi-1 variant IgG, VH N103W, T28K, Y32F, A100N; VL N35R (antibody, V domains shown)
VH: B1 VH with N103W
VL: B1 VL with N35R
notes: IgG format

The binders below were run against T1, Recombinant purified TRBC1 (human, UniProt P01850 1-129, limits assumed) (assay: SPR, IgG captured on anti-human Fc, TRBC1 as analyte).
T1 construct: Construct not described (may be a soluble TCR carrying TRBC1); also called TCR beta constant region 1; soluble recombinant biotinylated TRBC1
T1 sequence (P01850 1-129 limits assumed): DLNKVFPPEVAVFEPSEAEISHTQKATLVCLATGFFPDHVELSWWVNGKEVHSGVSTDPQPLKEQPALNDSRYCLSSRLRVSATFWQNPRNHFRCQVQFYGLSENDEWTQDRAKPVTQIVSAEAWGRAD
Description: (§1) A series S CM5 sensor chip was immobilised via amine coupling, with an anti-human Fc capture antibody to a density of 9000-10000 RU, using a Biacore T200 instrument. HBS-P+ buffer was used as running buffer in all experimental conditions. The test anti-TRBC2 antibodies (Table 1) were captured on flow cells 2, 3 and 4 to a density of 100-300 RU. Recombinant purified TRBC1 or TRBC2 at known concentrations were used as the ‘analyte’ and injected over the respective flow cells with 150s contact time and 300s dissociation at 30 μl/minute of flow rate. In each experiment, flow cell 1 was unmodified and used for reference subtraction. A ‘0 concentration’ sensorgram of buffer alone was used as a double reference subtraction to factor for drift. Data were fit to a 1:1 Langmuir binding model. Since a capture system was used, a local Rₘₐₓ parameter was used for the data fitting in each case.

Binder | Kd [nM]
B1 | 2730
B2 | 3140
B3 | 5830
B4 | 962
B5 | 8220
B6 | 881
B7 | 459
B8 | 648
B9 | 6580
B10 | 1580
B11 | 3930
B12 | 1930
B13 | 17400
B14 | 3540
B15 | 3680
B16 | 459
B17 | 1060
B18 | 707
B19 | 2020
B20 | 3680

Binder | Kd [nM]
B21 | 1380
B22 | 1770
B23 | 810
B24 | 11300
B25 | 1610
B26 | 2280
B27 | 7830
B28 | 733
B29 | 376
B30 | 1280
B31 | 1680
B32 | 1680
B33 | 1650
B34 | 1860
B35 | 1500
B36 | 3590
B37 | 290
B38 | 3390
B39 | 2930
B40 | 1730

The binders below were run against T2, Recombinant purified TRBC2 (human, UniProt A0A5B9 1-129, limits assumed) (assay: SPR, IgG captured on anti-human Fc, TRBC2 as analyte).
T2 construct: Construct not described (may be a soluble TCR carrying TRBC2); also called TCR beta constant region 2; soluble recombinant biotinylated TRBC2
T2 sequence (A0A5B9 1-129 limits assumed): as the sequence (P01850 1-129 limits assumed) above, with N3K, K4N, E9K, F36Y counted along it
Description: as §1

Binder | Kd [nM]
B1 | 432
B2 | 1360
B3 | 2130
B4 | 165
B5 | 1830
B6 | 294
B7 | 130
B8 | 131
B9 | 1560
B10 | 339
B11 | 917
B12 | 480
B13 | 4950
B14 | 983
B15 | 851
B16 | 130
B17 | 270
B18 | 187
B19 | 416
B20 | 1170

Binder | Kd [nM]
B21 | 369
B22 | 484
B23 | 201
B24 | 1320
B25 | 459
B26 | 611
B27 | 1880
B28 | 172
B29 | 83.6
B30 | 302
B31 | 417
B32 | 510
B33 | 425
B34 | 501
B35 | 364
B36 | 1160
B37 | 90.3
B38 | 714
B39 | 1300
B40 | 390
